This is an account of results in article PMC10002482, “BMPER Improves Vascular Remodeling and the Contractile Vascular SMC Phenotype” (International Journal of Molecular Sciences, 2023).

The target of test [1] is T1, recombinant BMPER (BMP endothelial cell precursor-derived regulator) ( (recombinant human and …, UniProt Q8N8U9 40-685)).
T1 construct: BMPER, recombinant protein used as analyte in SPR; whether this holds for the SPR proteins is surmised; Secreted glycoprotein; also called soluble BMPER; source: recombinant
The test can be described thus: SPR; BIAcore 2000; BMP-4 immobilised at 430 RU on CM5 by amine coupling; 0-320 nM BMPER or IGFBP-4 injected in HBS-EP; 1:1 model with mass transfer; apparent KD = kd/ka. As to conditions: both partners purified. (In SPR one partner is held on a chip, and binding of the other changes the refractive index at the surface.)

For test [2], the target named is T1, recombinant BMPER (BMP endothelial cell …). The test can be described thus: SPR; BIAcore 2000; IGFBP-4 immobilised at 360 RU on CM5 by amine coupling; 0-320 nM BMPER injected in HBS-EP (0.01 M HEPES pH 7.4, 0.15 M NaCl, 3 mM EDTA, 0.005% P20), 180 s association, 180 s dissociation; 1:1 model with mass transfer; apparent KD = kd/ka. As to conditions: both partners purified.

T1 sequence (Q8N8U9 40-685): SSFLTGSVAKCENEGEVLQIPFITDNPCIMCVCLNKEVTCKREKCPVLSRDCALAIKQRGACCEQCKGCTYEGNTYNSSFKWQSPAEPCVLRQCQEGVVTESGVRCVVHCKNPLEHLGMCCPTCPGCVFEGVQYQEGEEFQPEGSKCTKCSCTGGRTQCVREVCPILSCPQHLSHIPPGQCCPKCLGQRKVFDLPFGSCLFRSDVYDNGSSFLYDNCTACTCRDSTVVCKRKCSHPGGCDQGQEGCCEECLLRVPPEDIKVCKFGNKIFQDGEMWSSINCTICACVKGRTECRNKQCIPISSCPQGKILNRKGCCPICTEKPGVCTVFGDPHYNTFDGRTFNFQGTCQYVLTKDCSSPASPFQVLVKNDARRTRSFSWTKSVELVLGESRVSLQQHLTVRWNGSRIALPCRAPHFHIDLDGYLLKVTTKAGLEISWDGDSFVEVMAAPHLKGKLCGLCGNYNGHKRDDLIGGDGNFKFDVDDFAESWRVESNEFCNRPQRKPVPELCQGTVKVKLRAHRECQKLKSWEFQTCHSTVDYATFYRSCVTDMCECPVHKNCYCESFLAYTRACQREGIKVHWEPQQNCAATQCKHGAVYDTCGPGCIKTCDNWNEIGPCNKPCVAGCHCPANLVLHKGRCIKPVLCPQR

B1: BMP-4 (bone morphogenetic protein 4) (ligand, UniProt P12644 293-408, looked up)
chain: SPKHHSQRARKKNKNCRRHSLYVDFSDVGWNDWIVAPPGYQAFYCHGDCPFPLADHLNSTNHAIVQTLVNSVNSSIPKACCVPTELSAISMLYLDEYDKVVLKNYQEMVVEGCGCR
notes: BMP4, immobilised on a CM5 chip in SPR
In the case of B1, in test [1], the Kd is 1.5 nM.

B2: recombinant IGFBP-4 (insulin-like growth factor-binding protein 4) (natural protein, UniProt P22692 22-258, looked up)
chain: DEAIHCPPCSEEKLARCRPPVGCEELVREPGCGCCATCALGLGMPCGVYTPRCGSGLRCYPPRGVEKPLHTLMHGQGVCMELAEIEAIQESLQPSDKDEGDHPNNSFSPCSAHDRRCLQKHFAKIRDRSTSGGKMKVNGAPREDARPVPQGSCQSELHRALERLAASQSRTHEDLYIIPIPNCDRNGNFHPKQCHPALDGQRGKCWCVDRKTGVKLPGGLEPKGELDCHQLADSFRE
notes: IGFBP4, recombinant protein immobilised or injected in SPR; whether this holds for the SPR proteins is surmised; source: recombinant
As to B2, in test [2], the Kd worked out at 6.04 ± 1.86 nM.
